Measured values as given in article PMC4176334.

Columns and labels:
[1] = target: M. tuberculosis RNAP core;SigA (Mycobacterium tuberculosis;Mycobacterium tuberculosis) (UniProt P9WGZ1+P9WGY9+P9WGY7+P9WGY5+P9WGI1); test: EMSA
[2] = target: M. tuberculosis RNAP core;SigA;RbpA (Mycobacterium tuberculosis;Mycobacterium tuberculosis;Mycobacterium tuberculosis) (UniProt P9WGZ1+P9WGY9+P9WGY7+P9WGY5+P9WGI1+P9WHJ5); test: EMSA
[3] = target: T1, M. tuberculosis RNAP core;SigJ (Mycobacterium tuberculosis;Mycobacterium tuberculosis H37Rv?) (UniProt P9WGZ1+P9WGY9+P9WGY7+P9WGY5+L0TCG5); test: KMnO4 footprinting
[4] = target: T2, M. tuberculosis RNAP core;SigJ;RbpA (Mycobacterium tuberculosis;Mycobacterium tuberculosis H37Rv?;Mycobacterium tuberculosis) (UniProt P9WGZ1+P9WGY9+P9WGY7+P9WGY5+L0TCG5+P9WHJ5); test: KMnO4 footprinting
[5] = target: T1, M. tuberculosis RNAP core;SigJ (Mycobacterium tuberculosis;Mycobacterium tuberculosis H37Rv?); test: DNase I footprinting
[6] = target: T2, M. tuberculosis RNAP core;SigJ;RbpA (Mycobacterium tuberculosis;Mycobacterium tuberculosis H37Rv?;Mycobacterium tuberculosis); test: DNase I footprinting

Measured: binding

TTGAGTTCTCAAACAACACGCTTGCTTGTTTCCGCCCGCTTCGGGGCAACCCTGCCAGTCTAATACAAATCCGGCAATGGAGTCAAGACCAGGTTCGGTCATCCATAGATATCCATAGGTGACCGTCGCCTAACAGCATACCCGTTCGAT (double strand) [rrnAP3 promoter]
binds: [1] | [2]

GCCCTCCCGCCGACCCATGCTGGAATTCATAACATCAAGGACGAGACAGCCCCGCCGAATGTGACAGCAACCGGCGATTTCAGCGCTCGGCGC (double strand) [sigIP promoter]
binds: [3] | [4] | [5] | [6]
